What all share (experiment): EMSA
Holding throughout (conditions): derived from FIG. 2D
(In EMSA bound probe runs differently from free probe, usually more slowly.)

Series [1] has as its target T1, XylR wild-type (Escherichia coli) (UniProt P0ACI3).
T1 sequence: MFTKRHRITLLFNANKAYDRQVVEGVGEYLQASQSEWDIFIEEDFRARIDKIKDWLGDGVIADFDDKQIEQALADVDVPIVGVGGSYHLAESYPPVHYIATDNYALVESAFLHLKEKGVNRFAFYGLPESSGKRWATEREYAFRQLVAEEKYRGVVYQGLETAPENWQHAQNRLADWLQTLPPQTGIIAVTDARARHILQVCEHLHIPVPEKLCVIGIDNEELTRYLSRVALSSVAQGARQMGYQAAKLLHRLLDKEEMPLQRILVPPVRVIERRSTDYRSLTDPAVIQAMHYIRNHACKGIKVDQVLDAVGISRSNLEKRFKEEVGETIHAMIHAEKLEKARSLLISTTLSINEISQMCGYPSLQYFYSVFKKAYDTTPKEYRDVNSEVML

The target in series [2] is T2, XylR R121C R121C (Escherichia coli) (UniProt P0ACI3).
T2 sequence: T1 sequence with R121C

In series [3] the target is T3, XylR P363S P363S (Escherichia coli) (UniProt P0ACI3).
T3 sequence: T1 sequence with P363S

This passage reports Kd results from patent publication US20160362456.

Substitutions are numbered along the chain they refer to.

Broadly, the Kd is a measure of binding affinity in units of concentration.

XylR binding site IA: the figures for the dissociation constant Kd in series [1], in series [2] and in series [3] were 38.5 nM, 2.7 nM and 12.4 nM, respectively.
As for XylR binding site IF, the Kd in series [1] came to 19.6 nM; in series [2] it was 4 nM; in series [3] (value as printed), 27 nM.
